Read-outs that look alike come from different tables or passages of the source.

Usually EC50 stands for the midpoint of the concentration-response curve.

Assay [1] addresses T1, Human IL-2Rα/β/γ complex (high affinity IL-2 receptor) (human, UniProt P01589 22-272; P14784 27-551; P31785 23-369).
T1 construct: whole, on cells
T1 sequence (looked up) 1: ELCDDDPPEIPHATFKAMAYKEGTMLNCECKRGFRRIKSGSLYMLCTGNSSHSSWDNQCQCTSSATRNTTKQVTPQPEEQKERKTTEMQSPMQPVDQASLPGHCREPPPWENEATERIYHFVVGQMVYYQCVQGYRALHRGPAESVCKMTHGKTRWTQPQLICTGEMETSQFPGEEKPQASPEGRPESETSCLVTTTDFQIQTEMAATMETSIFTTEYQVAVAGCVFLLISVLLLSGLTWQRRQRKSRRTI
T1 sequence (looked up) 2: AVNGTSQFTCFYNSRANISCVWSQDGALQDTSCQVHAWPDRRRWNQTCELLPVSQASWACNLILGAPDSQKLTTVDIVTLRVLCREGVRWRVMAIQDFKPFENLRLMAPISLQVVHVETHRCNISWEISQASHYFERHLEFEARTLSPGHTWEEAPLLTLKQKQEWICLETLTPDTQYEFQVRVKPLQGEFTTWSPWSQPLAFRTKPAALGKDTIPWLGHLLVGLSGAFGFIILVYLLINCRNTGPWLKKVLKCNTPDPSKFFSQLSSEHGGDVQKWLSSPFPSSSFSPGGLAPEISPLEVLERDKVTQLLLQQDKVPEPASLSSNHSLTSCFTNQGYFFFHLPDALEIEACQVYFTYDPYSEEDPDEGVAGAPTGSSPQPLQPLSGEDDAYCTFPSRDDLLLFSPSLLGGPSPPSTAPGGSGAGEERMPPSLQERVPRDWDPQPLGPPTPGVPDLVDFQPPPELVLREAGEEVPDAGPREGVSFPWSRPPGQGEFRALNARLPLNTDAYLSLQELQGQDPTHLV
T1 sequence (looked up) 3: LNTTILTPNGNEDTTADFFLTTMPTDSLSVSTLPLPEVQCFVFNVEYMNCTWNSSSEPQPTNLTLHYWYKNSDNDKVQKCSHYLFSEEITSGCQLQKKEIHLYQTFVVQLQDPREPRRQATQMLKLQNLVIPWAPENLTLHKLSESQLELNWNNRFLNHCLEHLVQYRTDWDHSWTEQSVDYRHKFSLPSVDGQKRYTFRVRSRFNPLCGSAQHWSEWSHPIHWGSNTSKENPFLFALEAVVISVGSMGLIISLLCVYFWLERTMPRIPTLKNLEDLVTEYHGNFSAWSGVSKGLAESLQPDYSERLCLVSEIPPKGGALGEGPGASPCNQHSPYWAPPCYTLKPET
Put plainly: FACS, MJ20 cells; EC50 fold vs T2U0.E44-1. The procedure:
(§1) Human cutaneous T cell lymphoma HH cells, malignant non-Hodgkin's lymphoma NK92 cells and cutaneous T cell lymphoma MJ20 cells were used for binding assay. They both constitutively express IL-2Rβ (CD122) and […] (CD132), and NK92 and MJ20 also expresses IL-2Rα (CD25). HH, NK92 and MJ20 cells were cultured following ATCC guidance, then transferred to a 96-plate for binding analysis. Cells were incubated with IL-2/Fc fusion proteins at the indicated concentrations for 30 min at 4° C. to avoid internalization. Binding was detected by 2nd antibody of PE-anti-human Fc at 4° C. for another 30 min. The median fluorescence intensity (MFI) on HH and NK92 cells was measured using FACS.
(§2) Affinity of IL-2 variants to IL-2Rα/β/γ supported the same results (FIG. 8 and Table 7). […] And T2U0.E44-26, T2U0.E44-27, T2U0.E44-29 and T2U0.E44-30 induced hundreds to thousands affinity reduction in Treg compared to T2U0.E44-1. Binding curves in MJ20 cells (IL-2Rα/β/γ) also achieved similar trend (FIG. 8b). As a result, the method of C-terminal truncation and substitution of 129 was available to achieve IL-2Rβγ attenuated IL-2 variants.

Assay [2] has as its target T1, Human IL-2Rα/β/γ complex (high affinity …). Nature of the assay: FACS, NK92 cells; EC50 fold vs T2U0.E44-1. As for the experimental part: as §1
A general note: A flow cytometer gives signals particle by particle.

Assay [3] addresses T2, Human IL-2Rβ/γ (intermediate affinity IL-2 receptor) (human, UniProt P14784 27-551; P31785 23-369).
T2 construct: whole, on cells; also called IL-2Rβ/γc; IL-2Rβ (CD122) and γ (CD132)
T2 sequence (looked up) 1: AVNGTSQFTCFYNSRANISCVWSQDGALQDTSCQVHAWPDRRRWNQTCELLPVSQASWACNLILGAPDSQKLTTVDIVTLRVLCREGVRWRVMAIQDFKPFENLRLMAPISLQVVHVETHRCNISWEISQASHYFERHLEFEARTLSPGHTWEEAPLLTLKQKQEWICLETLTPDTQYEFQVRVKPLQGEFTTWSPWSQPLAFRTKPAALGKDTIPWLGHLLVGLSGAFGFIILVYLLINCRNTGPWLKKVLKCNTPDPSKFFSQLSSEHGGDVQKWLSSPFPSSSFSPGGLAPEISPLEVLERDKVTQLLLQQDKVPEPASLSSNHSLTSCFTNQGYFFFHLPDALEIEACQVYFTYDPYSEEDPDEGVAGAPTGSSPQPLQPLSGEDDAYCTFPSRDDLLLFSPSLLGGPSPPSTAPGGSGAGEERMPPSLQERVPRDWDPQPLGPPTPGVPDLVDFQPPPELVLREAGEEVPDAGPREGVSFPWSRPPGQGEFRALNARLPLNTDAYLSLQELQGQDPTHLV
T2 sequence (looked up) 2: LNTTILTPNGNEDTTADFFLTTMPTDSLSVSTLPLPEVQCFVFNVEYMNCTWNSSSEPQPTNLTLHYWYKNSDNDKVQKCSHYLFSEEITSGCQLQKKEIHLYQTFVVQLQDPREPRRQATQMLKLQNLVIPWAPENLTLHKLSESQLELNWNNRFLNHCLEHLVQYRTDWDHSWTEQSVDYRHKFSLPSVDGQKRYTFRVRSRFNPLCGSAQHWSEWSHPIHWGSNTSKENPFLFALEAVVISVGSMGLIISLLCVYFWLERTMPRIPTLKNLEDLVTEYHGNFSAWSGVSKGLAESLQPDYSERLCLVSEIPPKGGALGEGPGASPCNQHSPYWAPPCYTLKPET
Put plainly: FACS, HH cells. The procedure:
as §1

The target in assay [4] is T2, Human IL-2Rβ/γ (intermediate affinity …). Put plainly: FACS, HH cells; EC50 fold vs T2U0.E44-1. The procedure: as §1
Assay [5] deals with T1, Human IL-2Rα/β/γ complex (high affinity …). Put plainly: FACS, NK92 cells. The procedure: as §1
In assay [6] the target is T2, Human IL-2Rβ/γ (intermediate affinity …). Nature of the assay: cell-based or functional assay.
Assay [7] concerns the target T1, Human IL-2Rα/β/γ complex (high affinity …). Put plainly: cell-based or functional assay.
In assay [8] the target is T2, Human IL-2Rβ/γ (intermediate affinity …). Nature of the assay: FACS, HH cells. The procedure:
as §1
This is another data set of the same source.

Assay [9] shares this target. Put plainly: FACS, HH cells; EC50 fold vs T2U0.E44-1. As for the experimental part: as §1
The source holds these as a separate data set.

The target in assay [10] is T1, Human IL-2Rα/β/γ complex (high affinity …). Nature of the assay: FACS, MJ20 cells. As for the experimental part: as §1, §2
In assay [11] the target is T2, Human IL-2Rβ/γ (intermediate affinity …). Nature of the assay: cell-based or functional assay. The source holds these as a separate data set.
Assay [12] has as its target T1, Human IL-2Rα/β/γ complex (high affinity …). Put plainly: cell-based or functional assay. The source holds these as a separate data set.
In assay [13] the target is T2, Human IL-2Rβ/γ (intermediate affinity …). Nature of the assay: cell-based or functional assay. The source holds these as a separate data set.
Assay [14] addresses T1, Human IL-2Rα/β/γ complex (high affinity …). Put plainly: cell-based or functional assay. The source holds these as a separate data set.
Assay [15] has the same target. Nature of the assay: FACS, MJ20 cells; EC50 fold vs T2U0.E44-1. As for the experimental part:
as §1
This is another data set of the same source.

Assay [16] shares this target. Put plainly: FACS, MJ20 cells. The procedure:
as §1
The source holds these as a separate data set.

B1: W3XX115-T2U0.E44-6.uIgG4V1 (Fc fusion)
chain: APTSSSTKKTQLQLEHLLLDLQMILNGINNYKNPKLTRMLTFKFYMPKKATELKHLQCLEEELKPLEEVLNLAQSKNFHLRPRDLISNINVIVLELKGSETTFMCEYADETATIVEFLNRWITFCQSIIESKYGPPCPPCPAPEFLGGPSVFLFPPKPKDTLMISRTPEVTCVVVDVSQEDPEVQFNWYVDGVEVHNAKTKPREEQFNSTYRVVSVLTVLHQDWLNGKEYKCKVSNKGLPSSIEKTISKAKGQPREPQVYTLPPCQEEMTKNQVSLWCLVKGFYPSDIAVEWESNGQPENNYKTTPPVLDSDGSFFLYSRLTVDKSRWQEGNVFSCSVMHEALHNHYTQKSLSLSLG
heavy: EIQLQQSGPELVKPGASVKVSCKASGYSFTDYNMYWVKQSHGESLEWIGYIDPYNGGTRYNQKFKGKATLTVDKSSSTAFMHLNSLTSEDSAVYYCARNGHWDGAWFAYWGQGTLVTVSAASTKGPSVFPLAPCSRSTSESTAALGCLVKDYFPEPVTVSWNSGALTSGVHTFPAVLQSSGLYSLSSVVTVPSSSLGTKTYTCNVDHKPSNTKVDKRVESKYGPPCPPCPAPEFLGGPSVFLFPPKPKDTLMISRTPEVTCVVVDVSQEDPEVQFNWYVDGVEVHNAKTKPREEQFNSTYRVVSVLTVLHQDWLNGKEYKCKVSNKGLPSSIEKTISKAKGQPREPQVCTLPPSQEEMTKNQVSLSCAVKGFYPSDIAVEWESNGQPENNYKTTPPVLDSDGSFFLVSRLTVDKSRWQEGNVFSCSVMHEALHNHYTQKSLSLSLG
light: DIQMNQSPSSLSASLGDTITITCHASQNINVWLSWYQQKPGNIPKLLIYKASNLHTGVPSRFSGSRSGTGFTLTISSLQPEDIATYYCHQGQSYPFTFGSGTKLEIKRTVAAPSVFIFPPSDEQLKSGTASVVCLLNNFYPREAKVQWKVDNALQSGNSQESVTEQDSKDSTYSLSSTLTLSKADYEKHKVYACEVTHQGLSSPVTKSFNRGEC
notes: IL-2 with C-terminal 4 aa (STLT) deleted; E44 format, IgG4
Regarding B1, the Affinity reduction was 4 fold in [1], 2.48 fold in assay [2], 14.1 fold in [4] and 9.9 fold in assay [9]. Moreover, the 50% effective concentration (EC50) in [3] stood at 533 nM; in assay [5] it was 13.7 nM; in assay [8], 437 nM; in assay [10] it was 56.6 nM. Besides, the “Potency in human CD8+ T EC50” value in assay [6] was determined as 360 nM; in [11], 175 nM. In addition, the “Potency reduction (CD8+ T)” value is 18 fold in [6] and 18.3 fold in assay [11]. Further, the results for the “Potency in human Treg EC50” value in assay [7] and in assay [12] were 0.032 nM and 1.51 nM, respectively. The “Potency reduction (Treg)” value in assay [7] stood at 12.6 fold; in assay [12], 58.4 fold.

B2: W3XX115-T2U0.E44-37.uIgG4V322 (Fc fusion)
chain: APTSSSTKKTQLQLEHLLLDLQMILNGINNYKNPKLTRMLTFKFYMPKKATELKHLQCLEEELKPLEEVLNLAQSKNFHLRPRDLISNINVIVLELKGSETTFMCEYADETATIVEFLNRWITFCQNISESKYGPPCPPCPAPEAAGGPSVFLFPPKPKDTLMISRTPEVTCVVVDVSQEDPEVQFNWYVDGVEVHNAKTKPREEQFNSTYRVVSVLTVLHQDWLNGKEYKCKVSNKGLPSSIEKTISKAKGQPREPQVYTLPPCQEEMTKNQVSLWCLVKGFYPSDIAVEWESNGQPENNYKTTPPVLDSDGSFFLYSRLTVDKSRWQEGNVFSCSVMHEALHNHYTQKSLSLSLG
heavy: EIQLQQSGPELVKPGASVKVSCKASGYSFTDYNMYWVKQSHGESLEWIGYIDPYNGGTRYNQKFKGKATLTVDKSSSTAFMHLNSLTSEDSAVYYCARNGHWDGAWFAYWGQGTLVTVSAASTKGPSVFPLAPCSRSTSESTAALGCLVKDYFPEPVTVSWNSGALTSGVHTFPAVLQSSGLYSLSSVVTVPSSSLGTKTYTCNVDHKPSNTKVDKRVESKYGPPCPPCPAPEAAGGPSVFLFPPKPKDTLMISRTPEVTCVVVDVSQEDPEVQFNWYVDGVEVHNAKTKPREEQFNSTYRVVSVLTVLHQDWLNGKEYKCKVSNKGLPSSIEKTISKAKGQPREPQVCTLPPSQEEMTKNQVSLSCAVKGFYPSDIAVEWESNGQPENNYKTTPPVLDSDGSFFLVSRLTVDKSRWQEGNVFSCSVMHEALHNHYTQKSLSLSLG
light: DIQMNQSPSSLSASLGDTITITCHASQNINVWLSWYQQKPGNIPKLLIYKASNLHTGVPSRFSGSRSGTGFTLTISSLQPEDIATYYCHQGQSYPFTFGSGTKLEIKRTVAAPSVFIFPPSDEQLKSGTASVVCLLNNFYPREAKVQWKVDNALQSGNSQESVTEQDSKDSTYSLSSTLTLSKADYEKHKVYACEVTHQGLSSPVTKSFNRGEC
notes: IL-2 del STLT, S127N and I129S (glycosylation design); E44 format, IgG4 FALA
Consider B2, for which the results for the Affinity reduction in assay [4] and in assay [15] were 190000 fold and 2.1 fold, respectively. In assay [13], the “Potency in human CD8+ T EC50” value was ~17.6 nM. Besides, the “Potency in human Treg EC50” value in assay [14] stood at 8 nM. Also, the “Potency reduction (Treg)” value in assay [14] came to 4060 fold. The molecule further returned an EC50 in [16] of 87.7 nM.

The record behind these values is patent publication US20250000946A1 (WUXI BIOLOGICS IRELAND, published 2025).
